In patent US20240336680A1:

Assays:
[1] = target: human CLDN18.2 (isoform 2 of claudin-18), full length, expressed on CHO cells (human) (UniProt P56856); assay: FACS titration on CHO/CLDN18.2 cells, 0.00001 to 100 ug/mL
[2] = target: human CLDN18.2 (isoform 2 of claudin-18), full length, expressed on CHO cells (human) (UniProt P56856); assay: FACS, serial dilutions on CHO cells expressing human CLDN18.2

EC50 (read off the curve) [1]	EC50 [2]	Binder
1 µg/mL		HuT252S4 H3/L1 (antibody, V domains shown) VH: EVQLVQSGAEVKKPGESLKISCKGSGYSFTGYNMNWVRQMPGKNLEWIGLINPYNGGTRYNQKFKGKATLSVDKSISTAYLQWSSLKASDTAMYFCARMGLGNAMDYWGQGTTVTVSS VL: DIVMTQSPDSLAVSLGERATINCKSSQNLLNSGNQKNYLTWYQQKPGQPPKLLIYWASTMESGVPDRFSGSGSGTDFTLTISSLQAEDVAVYYCQNDYIYPLPFGQGTKLEIK
1 µg/mL		HuT252S4 H3/L2 (antibody, V domains shown) VH: EVQLVQSGAEVKKPGESLKISCKGSGYSFTGYNMNWVRQMPGKNLEWIGLINPYNGGTRYNQKFKGKATLSVDKSISTAYLQWSSLKASDTAMYFCARMGLGNAMDYWGQGTTVTVSS VL: DIVMTQSPDSLAVSLGERATINCKSSQNLLQSGNQKNYLTWYQQKPGQPPKLLIYWASTRESGVPDRFSGSGSGTDFTLTISSLQAEDVAVYYCQNDYIYPLPFGQGTKLEIK
	1 µg/mL	Chimeric T252S4 H/L (antibody, human IgG1, V domains shown) VH: EVQLQQSGPELVKPGASMKISCKASGYSFTGYNMNWVKQTHGKNLEWIGLINPYNGGTRYNQKFKGKATLTVDKSSSTAYMELLSLTSEDSAVYFCARMGLGNAMDYWGQGTSVTVSS VL: DIVMTQSPSSLTVTAGEKVTMSCKSSQNLLNSGNQKNYLTWYQQKPGQPPKLLIYWASTMESGVPDRFTGSGSGTDFTLTISSVQAEDLAVYYCQNDYIYPLPFGAGTKLELK
